Experimental findings from IntAct's records for PubMed 31515488 are described below.

B1: Germ cell-less protein-like 1 (Homo sapiens), Q96IK5 (parent)
chain: MGSLSSRVLRQPRPALAQQAQGARAGGSARRPDTGDDAAGHGFCYCAGSHKRKRSSGSFCYCHPDSETDEDEEEGDEQQRLLNTPRRKKLKSTSKYIYQTLFLNGENSDIKICALGEEWSLHKIYLCQSGYFSSMFSGSWKESSMNIIELEIPDQNIDVEALQVAFGSLYRDDVLIKPSRVVAILAAACLLQLDGLIQQCGETMKETVNVKTVCGYYTSAGTYGLDSVKKKCLEWLLNNLMTHQNVELFKELSINVMKQLIGSSNLFVMQVEMDIYTALKKWMFLQLVPSWNGSLKQLLTETDVWFSKQRKDFEGMAFLETEQGKPFVSVFRHLRLQYIISDLASARIIEQDAVVPSEWLSSVYKQQWFAMLRAEQDSEVGPQEINKEELEGNSMRCGRKLAKDGEYCWRWTGFNFGFDLLVTYTNRYIIFKRNTLNQPCSGSVSLQPRRSIAFRLRLASFDSSGKLICSRTTGYQILTLEKDQEQVVMNLDSRLLIFPLYICCNFLYISPEKKN
partner: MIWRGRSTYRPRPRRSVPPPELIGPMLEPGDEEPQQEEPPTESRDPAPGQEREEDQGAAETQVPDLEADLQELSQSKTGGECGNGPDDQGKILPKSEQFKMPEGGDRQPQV
B2: Calcium-binding and coiled-coil domain-containing protein 2 (Homo sapiens), Q13137 (parent)
chain: MEETIKDPPTSAVLLDHCHFSQVIFNSVEKFYIPGGDVTCHYTFTQHFIPRRKDWIGIFRVGWKTTREYYTFMWVTLPIDLNNKSAKQQEVQFKAYYLPKDDEYYQFCYVDEDGVVRGASIPFQFRPENEEDILVVTTQGEVEEIEQHNKELCKENQELKDSCISLQKQNSDMQAELQKKQEELETLQSINKKLELKVKEQKDYWETELLQLKEQNQKMSSENEKMGIRVDQLQAQLSTQEKEMEKLVQGDQDKTEQLEQLKKENDHLFLSLTEQRKDQKKLEQTVEQMKQNETTAMKKQQELMDENFDLSKRLSENEIICNALQRQKERLEGENDLLKRENSRLLSYMGLDFNSLPYQVPTSDEGGARQNPGLAYGNPYSGIQESSSPSPLSIKKCPICKADDICDHTLEQQQMQPLCFNCPICDKIFPATEKQIFEDHVFCHSL
partner: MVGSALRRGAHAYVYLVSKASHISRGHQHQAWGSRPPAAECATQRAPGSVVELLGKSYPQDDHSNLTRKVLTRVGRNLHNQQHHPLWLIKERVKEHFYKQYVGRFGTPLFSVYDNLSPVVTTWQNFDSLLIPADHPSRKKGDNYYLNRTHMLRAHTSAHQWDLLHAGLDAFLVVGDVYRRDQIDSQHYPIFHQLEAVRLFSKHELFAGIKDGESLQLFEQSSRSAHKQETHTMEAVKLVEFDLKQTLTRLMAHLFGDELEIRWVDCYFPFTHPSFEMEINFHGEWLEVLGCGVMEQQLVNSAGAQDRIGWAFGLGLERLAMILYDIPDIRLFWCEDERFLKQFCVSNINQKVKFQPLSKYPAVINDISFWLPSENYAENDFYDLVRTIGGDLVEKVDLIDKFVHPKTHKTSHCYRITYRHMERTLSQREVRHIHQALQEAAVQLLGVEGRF
B3: Acylamino-acid-releasing enzyme (Homo sapiens), P13798 (parent)
chain: MERQVLLSEPEEAAALYRGLSRQPALSAACLGPEVTTQYGGQYRTVHTEWTQRDLERMENIRFCRQYLVFHDGDSVVFAGPAGNSVETRGELLSRESPSGTMKAVLRKAGGTGPGEEKQFLEVWEKNRKLKSFNLSALEKHGPVYEDDCFGCLSWSHSETHLLYVAEKKRPKAESFFQTKALDVSASDDEIARLKKPDQAIKGDQFVFYEDWGENMVSKSIPVLCVLDVESGNISVLEGVPENVSPGQAFWAPGDAGVVFVGWWHEPFRLGIRFCTNRRSALYYVDLIGGKCELLSDDSLAVSSPRLSPDQCRIVYLQYPSLIPHHQCSQLCLYDWYTKVTSVVVDVVPRQLGENFSGIYCSLLPLGCWSADSQRVVFDSAQRSRQDLFAVDTQVGTVTSLTAGGSGGSWKLLTIDQDLMVAQFSTPSLPPTLKVGFLPSAGKEQSVLWVSLEEAEPIPDIHWGIRVLQPPPEQENVQYAGLDFEAILLQPGSPPDKTQVPMVVMPHGGPHSSFVTAWMLFPAMLCKMGFAVLLVNYRGSTGFGQDSILSLPGNVGHQDVKDVQFAVEQVLQEEHFDASHVALMGGSHGGFISCHLIGQYPETYRACVARNPVINIASMLGSTDIPDWCVVEAGFPFSSDCLPDLSVWAEMLDKSPIRYIPQVKTPLLLMLGQEDRRVPFKQGMEYYRALKTRNVPVRLLLYPKSTHALSEVEVESDSFMNAVLWLRTHLGS
B4: Keratin-associated protein 12-2 (Homo sapiens), P59991 (parent)
chain: MCHTSCSSGCQPACCAPSPCQPACCVPSSCQASCCVPVGCQSSVCVPVSFKPAVCLPVSCQSSVCVPMSFKSAVCVPVSCQSSVCVPVSCRPIVCAAPSCQSSLCVPVSCRPVVYAAPSCQSSGCCQPSCTSVLCRPISYSISSCC
partner: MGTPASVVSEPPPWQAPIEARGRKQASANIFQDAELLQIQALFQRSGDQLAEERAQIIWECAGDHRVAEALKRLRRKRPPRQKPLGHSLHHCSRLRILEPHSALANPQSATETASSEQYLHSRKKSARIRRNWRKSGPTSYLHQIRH

Variants of B1 are the subject of one assay. To be noted: with xage3_human XAGE3, Q8WTP9.
As to Y61S, the “effect of a mutation on the interaction” value was “with no effect”.
Still for that read-out and setting: the value for R457H was “with no effect”.
Still for that read-out and setting: the value for I147V was “with no effect”; that for R449Q was “with no effect”.
Still for that read-out and setting: to I340V belongs “with no effect”; to K123R, “with no effect”.
With E77K, the “effect of a mutation on the interaction” value is recorded as “with no effect”.
Turning to K281Q, the “effect of a mutation on the interaction” value is given as “with no effect”.

Another assay covers variants of B2. To be noted: with syfm_human FARS2, O95363.
On to E222K, for which the “effect of a mutation on the interaction” value is listed as “with no effect”.

A further assay covers variants of B3. To be noted: with leg8_human LGALS8, O00214.
Sequence of leg8_human LGALS8, O00214 (O00214 whole entry): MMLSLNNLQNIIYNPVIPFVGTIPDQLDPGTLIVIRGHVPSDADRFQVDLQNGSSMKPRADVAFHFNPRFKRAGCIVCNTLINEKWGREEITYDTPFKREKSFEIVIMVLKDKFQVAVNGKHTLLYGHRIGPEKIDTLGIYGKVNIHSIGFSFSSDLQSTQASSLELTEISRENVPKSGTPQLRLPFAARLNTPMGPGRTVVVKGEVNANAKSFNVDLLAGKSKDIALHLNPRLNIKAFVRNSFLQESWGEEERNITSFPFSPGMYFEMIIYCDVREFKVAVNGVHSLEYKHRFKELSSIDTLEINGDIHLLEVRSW
As to F378S, the “effect of a mutation on the interaction” value is on record as “disrupting interaction strength”.

The variants in a further assay derive from B4. The settings on record: with avpi1_human AVPI1, Q5T686.
Take S143P: the “effect of a mutation on the interaction” value is listed as “with no effect”.
Take A16T: the “effect of a mutation on the interaction” value is “with no effect”.
